Results as given in patent EP1280904B1 (CALIFORNIA INSTITUTE OF TECHNOLOGY, dated 2005).
Values belong to the molecule of their own block, whether it stands above or below them. Where no end group is shown, it is not given here.

Tests used:
Assay in all cases: cell-based or functional assay
[1] = biological target: MRGA4-GFP fusion protein (mouse) (UniProt Q91WW2)
MRGA1-GFP fusion protein = biological target: T1, MRGA1-GFP fusion protein (mouse, UniProt Q91WW5 1-304)
T1 sequence: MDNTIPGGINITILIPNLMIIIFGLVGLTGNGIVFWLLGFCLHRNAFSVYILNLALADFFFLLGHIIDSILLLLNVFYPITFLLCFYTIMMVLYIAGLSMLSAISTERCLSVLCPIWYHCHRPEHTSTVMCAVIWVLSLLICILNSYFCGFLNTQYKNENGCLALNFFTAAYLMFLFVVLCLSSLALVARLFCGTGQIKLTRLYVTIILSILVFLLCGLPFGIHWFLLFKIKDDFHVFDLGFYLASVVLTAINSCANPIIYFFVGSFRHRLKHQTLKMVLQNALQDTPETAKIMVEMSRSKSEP

MAS1 = biological target: MAS1

Sequence of MRGA4-GFP fusion protein (mouse) (Q91WW2 9-313 A204G limits assumed, form in doubt): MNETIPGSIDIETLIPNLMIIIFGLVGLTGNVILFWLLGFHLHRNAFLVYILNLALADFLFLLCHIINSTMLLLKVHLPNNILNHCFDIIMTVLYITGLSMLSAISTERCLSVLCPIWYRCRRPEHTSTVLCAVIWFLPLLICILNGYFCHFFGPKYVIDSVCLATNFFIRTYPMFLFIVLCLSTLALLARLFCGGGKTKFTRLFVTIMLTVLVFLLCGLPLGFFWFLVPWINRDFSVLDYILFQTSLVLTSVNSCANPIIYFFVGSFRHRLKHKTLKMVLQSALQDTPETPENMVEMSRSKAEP

Molecule: NPAF (peptide)
EC50 of calcium dose-response, HEK cells expressing G 15 [1]: 60 nM

Molecule: NPFF (peptide)
EC50 of calcium dose-response, HEK-G 15 cells (MAS1): 400 nM | EC50 of calcium dose-response, HEK cells expressing G 15 (MRGA1-GFP fusion protein): 200 nM

Second part, the molecule after the results:

EC50 of calcium dose-response, HEK cells expressing G 15 (data not shown) [1]: 200 nM | EC50 of calcium dose-response, HEK cells expressing G 15 (data not shown) (MRGA1-GFP fusion protein): 60 nM
Molecule: ACTH (peptide)

EC50 of calcium dose-response, HEK cells expressing G 15 (MRGA1-GFP fusion protein): 20 nM
Molecule: FLRF-NH2 [FLRFamide]
